Source: IntAct's records for PubMed 21245319

B1: Histone-lysine N-methyltransferase SETD7 (Homo sapiens), Q8WTS6 (parent)
chain: MDSDDEMVEEAVEGHLDDDGLPHGFCTVTYSSTDRFEGNFVHGEKNGRGKFFFFDGSTLEGYYVDDALQGQGVYTYEDGGVLQGTYVDGELNGPAQEYDTDGRLIFKGQYKDNIRHGVCWIYYPDGGSLVGEVNEDGEMTGEKIAYVYPDERTALYGKFIDGEMIEGKLATLMSTEEGRPHFELMPGNSVYHFDKSTSSCISTNALLPDPYESERVYVAESLISSAGEGLFSKVAVGPNTVMSFYNGVRITHQEVDSRDWALNGNTLSLDEETVIDVPEPYNHVSKYCASLGHKANHSFTPNCIYDMFVHPRFGPIKCIRTLRAVEADEELTVAYGYDHSPPGKSGPEAPEWYQVELKAFQATQQK

Variants of: B1
Details: with sir1_human SIRT1, Q96EB6
Chain of sir1_human SIRT1, Q96EB6 (Q96EB6 whole entry): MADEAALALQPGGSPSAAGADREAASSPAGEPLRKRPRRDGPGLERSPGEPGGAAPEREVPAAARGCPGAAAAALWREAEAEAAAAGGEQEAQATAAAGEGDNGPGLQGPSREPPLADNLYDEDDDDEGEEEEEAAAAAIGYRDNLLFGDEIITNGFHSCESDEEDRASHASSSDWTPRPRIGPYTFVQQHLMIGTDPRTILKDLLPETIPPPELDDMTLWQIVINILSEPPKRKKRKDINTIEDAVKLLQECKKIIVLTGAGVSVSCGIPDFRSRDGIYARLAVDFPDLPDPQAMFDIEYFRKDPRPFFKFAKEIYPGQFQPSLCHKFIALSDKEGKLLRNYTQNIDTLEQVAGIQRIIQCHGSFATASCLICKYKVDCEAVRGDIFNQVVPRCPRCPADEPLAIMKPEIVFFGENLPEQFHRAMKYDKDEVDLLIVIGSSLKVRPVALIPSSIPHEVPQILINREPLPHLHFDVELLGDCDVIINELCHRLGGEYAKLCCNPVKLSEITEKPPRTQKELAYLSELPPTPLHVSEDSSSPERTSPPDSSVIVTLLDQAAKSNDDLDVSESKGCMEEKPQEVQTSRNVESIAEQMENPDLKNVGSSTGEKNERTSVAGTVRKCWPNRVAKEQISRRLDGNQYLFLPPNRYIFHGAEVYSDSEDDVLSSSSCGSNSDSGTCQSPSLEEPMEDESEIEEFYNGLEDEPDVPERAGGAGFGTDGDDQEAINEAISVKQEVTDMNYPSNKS

| effect of a mutation on the interaction | Variant |
| --- | --- |
| decreasing interaction strength | MDSDDEMVEEAVEGHLDDDGLPHGFCTVTYSSTDRFEGNFVHGEKNGRGKFFFFDGSTLEGYYVDDALQGQGVYTYEDGGVLQGTYVDGELNGPAQEYDTDGRLIFKGQYKDNIRHGVCWIYYPDGGSLVGEVNEDGEMTGEKIAYVYPDERTALYGKFIDGEMIEGKLATLMSTEEGRPHFELMPGNSVYHFDKSTSSCISTNALLPDPYESERVYVAESLISSAGEGLFSKVAVGPNTVMSFYNGVRITHQEVDSRDWALNGNTLSLDEETVIDVPEPYNHVSKYCASLGHKANASFTPNCIYDMFVHPRFGPIKCIRTLRAVEADEELTVAYGYDHSPPGKSGPEAPEWYQVELKAFQATQQK [H297A] |
